In paper PMC6152618, “Antimicrobial Activity of Truncated and Polyvalent Peptides Derived from the FKCRRWQWRMKKGLA Sequence against Escherichia coli ATCC 25922 and Staphylococcus aureus ATCC 25923” (Molecules : A Journal of Synthetic Chemistry and Natural …, 2017):

Experiments:
[1] = tested on: Staphylococcus aureus ATCC 25923; type: cell-based; settings: n = 2
Procedure: (§1) The MIC was determined using a microdilution assay. In brief, bacterial strains were incubated for 18 to 24 h at 37 °C in an Müller-Hinton (MH) broth until an optical density of 0.15 to 0.30 (620 nm) was obtained. Next, 90 μL of Mueller-Hinton broth (MHB) was mixed with […], and serial dilutions (200, 100, 50, 25, 12.5 and 6.2) were prepared in 96-well microplates (final volume 100 μL/well). Then, 10 μL of inoculum (2 × 10^6 CFU/mL) was added to each well. The final volume in each well was 100 μL. Then they were incubated for 24 h at 37 °C; the absorbance at 620 nm was measured using an Asys Expert Plus ELISA reader. For determining the MBC, a small sample was taken from each well using an inoculation loop, and then was spread on MH agar plates and incubated overnight at 37 °C. MBC was considered on the plate which presented no bacterial growth. Each of these tests was performed twice (n = 2).

[2] = tested on: Escherichia coli ATCC 25922; type: cell-based; settings: n = 2
Procedure: as §1

[3] = microdilution, Mueller-Hinton broth, 24 h at 37 °C, absorbance 620 nm
[4] = sample of each well spread on MH agar, overnight 37 °C, no bacterial growth

B1: BLF: bovine lactoferrin protein, control (protein, UniProt P24627 20-708, looked up)
Lactotransferrin: APRKNVRWCTISQPEWFKCRRWQWRMKKLGAPSITCVRRAFALECIRAIAEKKADAVTLDGGMVFEAGRDPYKLRPVAAEIYGTKESPQTHYYAVAVVKKGSNFQLDQLQGRKSCHTGLGRSAGWIIPMGILRPYLSWTESLEPLQGAVAKFFSASCVPCIDRQAYPNLCQLCKGEGENQCACSSREPYFGYSGAFKCLQDGAGDVAFVKETTVFENLPEKADRDQYELLCLNNSRAPVDAFKECHLAQVPSHAVVARSVDGKEDLIWKLLSKAQEKFGKNKSRSFQLFGSPPGQRDLLFKDSALGFLRIPSKVDSALYLGSRYLTTLKNLRETAEEVKARYTRVVWCAVGPEEQKKCQQWSQQSGQNVTCATASTTDDCIVLVLKGEADALNLDGGYIYTAGKCGLVPVLAENRKSSKHSSLDCVLRPTEGYLAVAVVKKANEGLTWNSLKDKKSCHTAVDRTAGWNIPMGLIVNQTGSCAFDEFFSQSCAPGADPKSRLCALCAGDDQGLDKCVPNSKEKYYGYTGAFRCLAEDVGDVAFVKNDTVWENTNGESTADWAKNLNREDFRLLCLDGTRKPVTEAQSCHLAVAPNHAVVSRSDRAAHVKQVLLHQQALFGKNGKNCPDKFCLFKSETKNLLFNDNTECLAKLGGRPTYEEYLGTEYVTAIANLKKCSTSPLLEACAFLTR
>50 µM: MIC S. aureus ATCC 25923 [1, 3] | MBC S. aureus ATCC 25923 [1, 4] | MIC E. coli ATCC 25922 [2, 3] | MBC E. coli ATCC 25922 [2, 4]
